The results in this text go back to article PMC7854983.

A word on the stoichiometry N: it is the number of molecules, sites or subunits per partner or assembly. As usually defined, the Kd is the concentration at which binding is half-saturated. A high value points to a looser complex.

The subject of one data set is YY1 (SILAC extract). Kind of data set: pull-down, SILAC MS.
The next data set addresses GST-tagged YY1(Δ231-290) (UniProt P25490). Briefly: SEC.
In a further data set the target is GST-YY1 (Homo sapiens, UniProt P25490 1-414). Kind of data set: fluorescence anisotropy. Background: Fluorescence polarisation rises when a labelled molecule tumbles more slowly, as on binding a larger partner.
In data set [1] the target is T1, YY1 (Homo sapiens, UniProt P25490 1-414). Briefly: fluorescence anisotropy.
In data set [2] the target is T2, YY1 del231-290 (Homo sapiens, UniProt P25490 1-414, del231-290). Kind of data set: fluorescence anisotropy.
In data set [3] the target is T1, YY1. Kind of data set: fluorescence anisotropy. The source holds these as a separate data set.
Data set [4] deals with T2, YY1 del231-290. Briefly: fluorescence anisotropy. The source holds these as a separate data set.
The target of data set [5] is T1, YY1. Kind of data set: fluorescence anisotropy. The source holds these as a separate data set.
Data set [6] addresses T1, YY1. Kind of data set: fluorescence anisotropy. This is another data set of the same source.

Read-outs that look alike come from different tables or passages of the source. Some results are limits rather than exact numbers.

For hTEL G4 biotin probe, the binding signal (SILAC ratio G4/M4) in the data set on YY1 (SILAC extract) turned out to be 2.02.

As to cMYC G4 biotin probe, the binding signal (SILAC ratio G4/M4) in the data set with YY1 (SILAC extract) was found to be 1.77.

In the data set with GST-tagged YY1(Δ231-290), “GST-tagged YY1(Δ231-290) (from UniProt P25490 1-414)” came in with a stoichiometry N of 2.

With cKIT G4 biotin probe, the binding signal (SILAC ratio G4/M4) in the data set on YY1 (SILAC extract) was 1.92.

B1: YY1 consensus motif duplex (dsDNA)
DNA 1: TCCACGGCAGCCGCCATCTTGGCT
DNA 2: AGCCAAGATGGCGGCTGCCGTGGA
In turn, B1 yielded a Kd with GST-YY1 of 0.0116 ± 0.0008 µM.

In turn, AAAGGGTTAGGGTTAGGGTTAGGGAA (structured_DNA) [hTEL G4] had a Kd with YY1 [1] of 0.082 ± 0.0053 µM.

As to TGAGGGTGGGGAGGGTGGGGA (structured_DNA) [cMYC G4], in the data set with YY1 del231-290 [2], the binding result is “binds”. The molecule further had a Kd with YY1 [1] of 0.0263 ± 0.0021 µM.

For AAAGGGTTAGTGTTAGTGTTAGGGAA (ssDNA) [hTEL M4], the binding signal with YY1 [3] is > 10 fold lower affinity than hTEL G4.

Regarding TGAGGGTGAGGAGTGTGGGGA (ssDNA) [cMYC M4], the binding signal is ~10 fold lower affinity than cMYC G4 with YY1 del231-290 [4] and > 10 fold lower affinity than cMYC G4 with YY1 [5].

For the molecule AGGGAGGGCGCTGGGAGGAGGG (structured_DNA) [cKIT G4], in the data set with YY1 [1], the Kd came out at 0.0267 ± 0.0022 µM.

For AGGGAGGGCTCTGTGAGGAGGG (ssDNA) [cKIT M4], the binding signal with YY1 [6] is > 10 fold lower affinity than cKIT G4.
